Source: the nanobody polyreactivity screen of Harvey et al. (2022)

Experiment: yeast display, Sf9 membrane polyspecificity reagent, FACS + sequencing; frameworks hold sequencing errors
Outline: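 Nanobodies came from a synthetic yeast display library in Saccharomyces cerevisiae BJ5465, induced with galactose for 36–48 hours and stained for 1 hour at 4 °C with 10% biotinylated, detergent-solubilized Sf9 membrane reagent. Cells were enriched on streptavidin microbeads and then FACS-sorted, with low and high (top ~1%) gates set on anti-HA fluorescence for expression and streptavidin fluorescence for reagent binding. Each polyreactivity label reflects the gate a clone came from. Genes were amplified by colony PCR, sequenced by MiSeq 2 × 250 and filtered by CDR length.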

| Sequence | polyreactivity (PSR sort gate) |
| --- | --- |
| QVQLVESGGGLVQAVGSLRLSCAASGSILVTYMGWYRPAPGKEREVVAAISYTGGSTYYADSVKGRFTISRDNAKNSVYLQMNSLKPEDTEVFYCASFYLASETYYYFYWPKDSDDYCGQGTQVTVSS | low polyreactivity |
| QVQLVESGGGLDQAGGSLRLSCAASGRILGYNALGWYRQAPGKERELVAAIRTGTTNYADSVKGRFTISRDNAKNTVYLQMNSLKPEDTAVYYCAALRPYNEGSSHLFRYDYWGQGTQVTVSS | low polyreactivity |
| QVQHVESGGGLVQAGGSLRLSCAASGFIFYKYAMGWYRQAPGKERELVAAISKRGGSTYYADSVKGRFTISRDNAKNTVYLQMNSLKPEDTAVYYCATDGGNSATVRYVASDYWGQGTQVTVSS | high polyreactivity |
| QDQLVESGGGLVQAGGSLRLSCAASGIIFGYYAMGWDRQAPGKERELVAAISSGGTTSYADSVKGPFTISRDNEKNTVSLQMNSLKPEYTAVYYCAARDGYDGFYYWGQGTQVTVSS | low polyreactivity |
| QVHLVESGGGLVQAGGSLRLSCASSGRIFEAYAMGWYRQAPGKERELVAAISGSGGSTYYADSVKGRFTISRDNAKNTVYLQMNSLKPEDTAVYYCAARYFVGKGLGYWGQGTQVTVSS | high polyreactivity |
| QVQLVESGGGLVQAGGSLRLSCAASGRIFQSNVMGWYRQAPGKERELVAGISTSGGSTYYADSVKGRFTISRDYAKNTVYLQMNSLKPEDTAVYYCAKDPSAVKVPYGYPVIKKTYNSWGQGTQVTVSS | low polyreactivity |
| QVQHVESGRGLVQAGGSLRLICAASGRIFDLNDMGRSRQAPGKERELVAAITSAGSTYYADSVKGRFTISRDNAKNTVYLQMNSLKPEDTAVYYCNKVARGVVRPGRVGSDYWAQGTQVTVSS | high polyreactivity |
| QVQLVESVGGLVQAGGSLRLSCAASGFNFRVYPMGWYRPAPRKERELVAAISVSGGSTTYADSVNGRFTISRDNAKNTVYLQMNSLKPEDTAVYYCAADYDFFSLYLYDYWGQGTQVTVSS | low polyreactivity |
| QVQLVESGGVLVQAGARLRLSSAASRFTLALNTMGCYIQAPVKERELVAAISWSGGSTFADSVKGRFTISRDNAKNTFYLQMNSLKPEDTAVYYCAAPLHVAGGYSRDFGSWGQGTQVTVSS | low polyreactivity |
| QVQLVESGGGLVQAGGSLRLSCAASGLTFTTYAMGWYRQAPWKERELVAAISRSGGRTYYADSVKGRFTISRDNAKNTVYLHMNSLKPEDTAVYYCNVKGHVLEYYWGQGTQVTVSS | high polyreactivity |
| QVQLVESGGGLFQAGGSLRLSCAASGFTFGIYAMGWYRQAPGKERELVAAITKRGGITSYADSVKGRFTISRDNAKNTVYLQMNSLKPEDTAVYYCAKIGGFLSYWSGDYWGQGTQVTVSS | low polyreactivity |
| QVQLVESGGGLVQAGGSLRLSCAASGGTFVRYVMGWYRPAPGKERELVAAISGSGGSTYYADTVKGRFTISRDNAKNTVYLQMNSLKPEASAVYYCASVYYWSKFYYWGQGTQVTVSS | high polyreactivity |
| QVQLVESGGGLVQAGGSLRLSCAASGIIFTTYDMGWYRQAPGKERELVAAISSSTTNTYYADSVKGRFTISRDNAKNTVYLQMNSLKPEDTAVYYCAADGYSLDRYEYWGQGTQVTVSS | low polyreactivity |
| QVQLVESGGGLVPAGGSLRLSCAASGFIFGGYAMGWYRQAPGKERELVADITTSGDSTYYADSVKGRFTISRDNAKNTVYLQMNSLKPEDTAVYYCNAKRSFRWTYGYWGQGTQVTVSS | high polyreactivity |
| QVQLVESGGGLVQAGGSLRLSCAASGRTSTRNAMGWYRQAPGKERELVAAITRSGGGTYYADSVKGRFTISRDNAKNTVYLQMNSLKPEDTAVYYCAADQRSPSDGYEYWGQGTQVTVSS | low polyreactivity |
| QVQLVESGGGLDQAGGSLRLSCAASGSIFGNNAMGWYRQAPGKERELVASISSSSGSTNYADSVKGRFTISRDNAKNTVYVQMNSLKPEDTAVYYCAARWRYWSRKYDYWGQGTQVTVSS | high polyreactivity |
| QVQLVASGGGLDQAGGSLRLSCAASGFPFQENAMGWYRQAPGKERELVAAISYGGGSPSYADSVKGRFTISRDNAKNTVYVQMNSLKPEDNAVYYCAADGGSAYAWYFAELYGYWGQGTQVTVSS | low polyreactivity |
| QVQLVESGGGLVQAGGSLRLSCAASGSIFADYAMGWYRQAPGKERELVAAITSGGSTYYADSVKGRFTISRDNAKNTVYLQKNSLKPEDTAVYYCAADWAFSRFAYQTDIYEYWGQGTQVTVSS | low polyreactivity |
| QVQLVESGGALVQAGGSHRLSCAASGSTFATYAMGWYRQAPGNEREFVAVITRGGRTYYADSVKGRFTISRDNAKITVYLQMNSLKPEDTAVYYCAAGSGNFVTRYRYGYWGQGTQVTVSS | high polyreactivity |
| QVQLVESGGGLVQAGGSLRLSCAASGRTFDKYAMGWYRQAPGKERELVAAISGSGGRTYYADSVKGRFTISRDNETNTVYLQMNSLKPEDTAVYYCAADTRSYTYYYWGQGTQVTVSS | high polyreactivity |
| QVQLVDSVGGLVEAGGILRLSCAASGNTFGRNAMGWYRQEPGKESELVAAISFSGSRPYYADSVKGRFTISRDNAKYTVYLQRNSLKPEDTAVYYCNKRGADWTGFFYYQYDFWGQGTQVTVSS | low polyreactivity |
| QDQLVESGGGLVQAGGSLRLSCAASGSTFVSNAMVWYRQAPGKERELVAAISSSGGRTSYADSVKGRFTISRDNAKNTVYLQMNSLKPEDTAVYYCAARFKSVDYVQYYYWGQGTQVTVSS | low polyreactivity |

| Sequence | polyreactivity (PSR sort gate) |
| --- | --- |
| QVHLVESRGVLVQAGGSLRLSCAASGRTFGYYAMGWYRQAPGKERELVAAINGSGSRTYYADSVKGRFTISRDNAKNSVYLQMNSLKPEDSAVYYCAATYPKYQYDYWGQGTQVTVSS | high polyreactivity |
| QVQLVESGGGLVQAGGSLLLSCAASGSILSKNAMGWYRQAPGKDRELVAAITWSGGSTYYADSVKGRFTISRDNAKNTVYLQMNSLKPEDTADYSCAADLDWSPQFGLPYDYWGQGTQVTVSS | low polyreactivity |
| HVQLQESGGGLVQAGGSLRLSCAASGSIFQATYMGWYRQAPGKEREFVASITYGSITNYADSVKGRFTIGRDNAKETLYLQMNSLKPEDTAVYYCAVDRHYIPAFHYWGQGTQVTVSS | low polyreactivity |
| QVQLVESGGGLVQAGGSLRLSCAASGRTFWNYAMGWYRQAPGKERELVAVIRFSDGSTYYADSVKGRFTISRDNAKNTVYLQMKSLKPEDTAVYYCGAKGQRRWGSGFDYWGQGTQVTVSS | low polyreactivity |
| QVQLVESGGGLVQAGGSLRLSCAASGNIFYTYAMGWYRPAPGKERELVAAITWSGGSTYYADSVKGRFTISRDKAKKTVYLQMNSLKPEDTAVYYCAADSLGYYYSGGYYSIYDHWGQGTQVTVSS | high polyreactivity |
| QVQLVESGGGLVQAGSSLRLSCAASGRIFGYYAMGWYRQAPGKEREFVASITYSGGRTYYADSVKGRFTISRDNAKNTVYLQMNSLKPEDTAVYYCAKRQSFLGVSYDYWGQGTQVTVSS | high polyreactivity |
| QVQLVESGGGLVQAGGSLRLSCAASGRIFADYAMGWYRQAPGKERELVAAISWRGGSRYYADSVKGRFTSSRDNAKNTVYLQMNSLKPEDTAVYYCNKASPADYDYWGQGTQVTVSS | low polyreactivity |
| QVQNVESGRGLVQAGGSLRISCAASGDYAMGWSIQAPGTERELVAAISRRGGSTYYADSVKGRFTISRDNAKNTVYLQMNSLKQDDTAVYSCAADYSSRNRGNRYRLDYWGQGTQVTVSS | high polyreactivity |
| QVQLVESGGGLVQAGGSLRLSCAASGSIFFAYVMGWYRQAPGKERELDAVITYSGGSTYYADSVKGRFTISRDNAKNTVYLQMNSLKPEDTAVYDCAADETSALDDYWGQGTQVTVSS | low polyreactivity |
| QVQQQESGGGLVQAGGSLRLSCAASGYIFQAENMGWYRQAPGKERELVAAITIGASTYYADSVRGRFTISRDNAKNTVYLQMNSVKPEDTAVYYCAAKRFQYRTLYDYWGQGTQVTVSS | high polyreactivity |
| QVQLVESGGGLVKAGGSLRLSCAASGGTFPLYAMGWYRQAPGKERELVAAIRWSGGRTYYADSVKGRFTISRDNAKNTVYLQMNSLKPEDTAVYYCSADYDDGWGYDYWGQGTQVTVSS | high polyreactivity |
| QVQLVDSGGGLVQAGGSLRLSCAASGFTFSAYAMGWYRQAPGKERELVAAISWSGSRTYYADSVKGRFTISRDNAKNTVYLQMNSLKPEDTAVYYCAKEPYDTFGFYEYDYWGQGTQVTVSS | low polyreactivity |
| QVQLVESVGGLVQAGGSLRLSCSASGSTFTGYAMGWYRQARGNEREFVATITKRGGRTYYADSVKGRFTISRDNAKNTVYLQMNSLKPEDSAVYYCARDQGKLFVPYDYWGKGTQVTVSS | high polyreactivity |
| QVQLVESGGGFVQAGGSLRLSSAASGSTFYRYAMGWYRQAPGKEREFVAAISRSGGSTYYADSVKRRFTLSRDNAKNTVYLQMNSLKPEDTAVEYCNKYYWYPYGRAQDYGYWGQGTQVTVSS | high polyreactivity |
| QVQLVESGGGLVQAGGSLRLSCAASGIIFGNYAMGWYRQEPGKERELVATITWRGGSTYYADSVKGRFTISRDNAKNTVYLQMISLKPEDTAVYYCARPYASYRSFYYYGYWGQGTQVTVSS | high polyreactivity |
| QVQLVESGGGLVQAGGSHRLSCAASGRTFGYNAMGWYRQAPGKERELVAAISRSGGRTYYADSVKGRFTISRDNAKNTVYLHMNRLKPEDTAVYYCAAESYHRGYDYWGQGTQVTVSS | high polyreactivity |
| QVQLVESGGGLVQAGGSLRLSCAASGITFALYAMGWYRQAPGKERELVAAISYSGGRTYYADSVKGRFTISRDNAKNTVYLQMNSLKPEDTAVYYCAAGGSGSGPYGYGYWGQGTQVTVSS | high polyreactivity |
| QGQLVESGGGLVQAGGSLRLSCAASGRTFSVNDMGWYRQAPGKERELVAAMSFSGGRTYYADSVKGRFTISRDNAKNTVYLQMNSLKPEDTAVYYCAADIRGYDYWGQGTQVTVSS | high polyreactivity |
| QVQLVESGVGLVQAGGSLRLSCAASGFILTAYDMGWYRQAPGKERELVAAIDWIGGSTYYADSVKGRFTISRDNAKNTVYLQMNSLKPEDTAVYYCAARFYSYVYRLDYWGQGTQVTVSS | low polyreactivity |
| QVQLVESGGGLVQAGGSLRLSCAASGFTFSAYAMGWYRQAPGKERELVAAISRRGGSTYYADSVKGRFTISRDTAKNTVYLQMNSVKPEDTAVYYCATDYPPGYDYWGQGTQVSVSS | high polyreactivity |
| QVQLVESGGGLVQAGGRLRLSCSASGRIFATYAMGWYRQAPGKERELVASISRRGGSTYYADSVKGRFTISRDNAKKTVYLQMNSLKPEDTAVYYCAKLFDTERGYNYWGQGTQVTVSS | high polyreactivity |
